From PMC10522976 come the findings set out here.

In this experiment the target is Cynomolgus MSLN (cynomolgus macaque).

B1: VH 3C9 (human antibody heavy chain variable domain) (VHH)
VHH: DVQLVESGGGVVQPGRSLRLSCAASGFTFSSYAMHWVRQAPGKGLEWVSSISGNSLYKYYADSVKGRFTISRDDSTNTLYLQMNSLRAEDTATYYCTRHWAVGNWGQGTLVTVSS
Consider B1, for which the Kd (as a rule, a measure of binding affinity in units of concentration) is greater than 100 nM.
